Laboratory results: patent publication US20210057047A1, “IN-SILICO METHOD FOR DESIGNING A (D)-POLYPEPTIDE LIGAND” (THE GOVERNING COUNCIL OF THE UNIVERSITY OF TORONTO, priority 2018, published 2021)
Read-outs that look alike come from different tables or passages of the source. Square brackets hold non-standard residues; d marks the D form. Ends that are not written are not given here. Peptide text beside a SMILES is read from it.

How the values were obtained:
[1] = target: T1, Proteinase K (ProtK) (Parengyodontium album, UniProt P06873); assay: in vitro; type: in vitro ADME
T1 construct: purchased Bioshop
T1 sequence (P06873 106-384): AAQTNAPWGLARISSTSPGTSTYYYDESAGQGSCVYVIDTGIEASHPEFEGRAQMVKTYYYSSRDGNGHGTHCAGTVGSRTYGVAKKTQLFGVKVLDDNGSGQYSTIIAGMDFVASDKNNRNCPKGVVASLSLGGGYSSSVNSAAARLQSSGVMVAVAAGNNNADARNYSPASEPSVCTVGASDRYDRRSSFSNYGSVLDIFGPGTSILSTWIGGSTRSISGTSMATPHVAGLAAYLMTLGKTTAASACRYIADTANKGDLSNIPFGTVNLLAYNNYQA
Protocol: Stocks of 20 μM peptide in 200 μL total volume (10 mM Tris-base, 10 mM NaCl, pH 7.4) were supplemented with 5 μM CaCl2) and 30 uL removed for the untreated T0 sample. Proteinase K (ProtK, Bioshop) was then added to a final concentration of 100 μg/mL. Samples were incubated at 37° C. and 30 μL removed after each time point and protease activity blocked by the addition of 10 mM PMSF (200 mM stock dissolved in isopropanol). Protease inactivated samples were frozen at −20° C. until further use. Digestions were repeated three times. Frozen samples were supplemented with 8 μL sample loading buffer (4× NuPAGE, ThermoFisher Scientific), boiled ([…]) for 10 minutes, and centrifuged (12 000 rpm, 10 min) prior to loading the gel (12% NuPAGE Bis-Tris (ThermoFisher Scientific) with MES running buffer). Gels were run at 200 V for […] and stained using Coomassie Brilliant Blue dye. Densitometry of bands was determined using ImageJ software (40) with back ground subtraction. All samples were normalized to their respective untreated sample (T0).

[2] = target: T2, parathyroid receptor (PTH1R) (Homo sapiens, UniProt Q03431); assay: CRE-luciferase reporter assay in HEK293 cells stably expressing PTH1R; type: cell-based
T2 construct: expressed in transfected cells; host or cells: HEK293
T2 sequence (Q03431 27-593): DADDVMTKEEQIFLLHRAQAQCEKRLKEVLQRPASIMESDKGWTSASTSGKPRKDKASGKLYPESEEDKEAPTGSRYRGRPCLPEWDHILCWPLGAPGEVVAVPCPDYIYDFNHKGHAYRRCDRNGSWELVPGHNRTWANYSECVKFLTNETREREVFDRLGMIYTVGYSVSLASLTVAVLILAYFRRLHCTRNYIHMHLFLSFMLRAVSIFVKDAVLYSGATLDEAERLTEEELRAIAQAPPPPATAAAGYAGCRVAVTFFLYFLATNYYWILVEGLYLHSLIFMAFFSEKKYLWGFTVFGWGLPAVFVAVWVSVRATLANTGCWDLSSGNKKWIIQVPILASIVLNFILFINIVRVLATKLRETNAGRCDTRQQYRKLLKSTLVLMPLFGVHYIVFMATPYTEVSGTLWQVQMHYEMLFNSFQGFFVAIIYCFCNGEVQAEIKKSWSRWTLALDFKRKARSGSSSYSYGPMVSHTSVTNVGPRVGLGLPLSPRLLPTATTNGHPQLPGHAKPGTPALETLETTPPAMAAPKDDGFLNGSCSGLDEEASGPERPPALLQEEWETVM
Protocol: This activates protein kinase A (PKA) to phosphorylate and activate cAMP response element-binding protein (CREB). […] All of the (L)-PTH is degraded in under 1 hr, while more than 85% of the (D)-analog is still detectable at 6 hours.
(a) (L)-PTH structure and sequence with hotspots highlighted in grey and junctions in black. (b) (D)-PDB match structures and sequences. (c) Final (D)-PTH construction from match sequences and RI (d) HEK293 cells stably expressing PTH1R and CRE-luciferase were stimulated with different concentrations of (L)-, (D)-PTH peptides and Forskolin. Luciferase activity was measured. The experiments were performed in triplicate. (e) Sample gel images of (L)- and (D)-PTH peptides treated with Proteinase K (ProtK) over 5 hours. Gels were stained with Coomassie Brilliant Blue dye and band densitometry calculated using ImageJ (40) with background subtraction. (f) Quantification of remaining peptide post ProtK treatment in […] intervals. Intensity of peptide bands were normalized to the intensity of the untreated peptide (T0) and converted to a percentage relative to T0. […] Error bars are reporting standard error. Data represent the average of 3 independent experiments.

[3] = FDA approved peptide drugs, Table 1; cited from earlier work
[4] = tested on: pCDNA3.1 HEK293 cells; assay: CRE-luciferase reporter assay in control pCDNA3.1 HEK293 cells; type: cell-based; conditions: pCDNA3.1 HEK293 cells without GLP1 receptor
[5] = target: GLP1 receptor (GLP1R) (human, UniProt P43220 24-463); assay: cell-based or functional assay

CC[C@@H](C)[C@@H](NC(=O)[C@@H](CCC(=O)O)NC(=O)[C@@H](CCCNC(=N)N)NC(=O)[C@@H](CCSC)NC(=O)[C@@H](CC(C)C)NC(=O)[C@@H](CC(=O)O)NC(=O)CNC(=O)[C@@H](CCCCN)NC(=O)[C@@H](Cc1c[nH]cn1)NC(=O)[C@@H](CC(N)=O)NC(=O)[C@@H](CCCNC(=N)N)NC(=O)[C@@H](Cc1c[nH]c2ccccc12)NC(=O)[C@@H](CCC(=O)O)NC(=O)[C@H]1CCCN1C(=O)[C@@H](CC(C)C)NC(=O)[C@@H](Cc1ccc(O)cc1)NC(=O)[C@@H](CCSC)NC(=O)[C@@H](CC(C)C)NC(=O)[C@@H](CC(C)C)NC(=O)[C@@H](CCSC)NC(=O)CNC(=O)[C@H](NC(=O)[C@@H](CO)NC(=O)[C@@H](CC(=O)O)NC(=O)[C@@H](C)NC(=O)[C@H](NC(=O)[C@@H](C)NC(=O)[C@@H](CC(C)C)NC(=O)CNC(=O)[C@@H](C)N)C(C)C)C(C)C)C(=O)N[C@H](CCCNC(=N)N)C(=O)N[C@H](CO)C(=O)N[C@H](CCCNC(=N)N)C(=O)N[C@H](CCCCN)C(=O)N[C@@H](C(=O)N[C@H](CO)C(=O)O)C(C)C [(D)-PTH] (H-[dA]G[dL][dA][dV][dA][dD][dS][dV]G[dM][dL][dL][dM][dY][dL][dP][dE][dW][dR][dN][dH][dK]G[dD][dL][dM][dR][dE][dI][dR][dS][dR][dK][dV][dS]-OH; N-terminus and C-terminus assumed)
degradation by ProtK (in words) [1]: persists after 5 hours | activation of PTH1R, potency and efficacy (in words) [2]: potency and efficacy comparable to (L)-PTH and Forskolin

CC(C)C[C@H](NC(=O)[C@H](CCCCN)NC(=O)CNC(=O)[C@H](CC(C)C)NC(=O)[C@@H](NC(=O)[C@@H]1CSSC[C@H](N)C(=O)N[C@@H](CO)C(=O)N[C@@H](CC(N)=O)C(=O)N[C@@H](CC(C)C)C(=O)N[C@@H](CO)C(=O)N[C@@H]([C@@H](C)O)C(=O)N1)C(C)C)C(=O)N[C@@H](CO)C(=O)N[C@@H](CCC(N)=O)C(=O)N[C@@H](CCC(=O)O)C(=O)N[C@@H](CC(C)C)C(=O)N[C@@H](Cc1c[nH]cn1)C(=O)N[C@@H](CCCCN)C(=O)N[C@@H](CC(C)C)C(=O)N[C@@H](CCC(N)=O)C(=O)N[C@H](C(=O)N[C@@H](Cc1ccc(O)cc1)C(=O)N1CCC[C@H]1C(=O)N[C@@H](CCCNC(=N)N)C(=O)N[C@H](C(=O)N[C@@H](CC(N)=O)C(=O)N[C@H](C(=O)NCC(=O)N[C@@H](CO)C(=O)NCC(=O)N[C@H](C(=O)N1CCC[C@H]1C(N)=O)[C@@H](C)O)[C@@H](C)O)[C@@H](C)O)[C@@H](C)O [Calcitonin]
t½ [3]: 0.967 h

Parathyroid Hormone
t½ [3]: 3 h

CC[C@H](C)[C@H](NC(=O)[C@H](Cc1ccccc1)NC(=O)[C@H](CCC(=O)O)NC(=O)[C@H](CCCCN)NC(=O)[C@H](C)NC(=O)[C@H](C)NC(=O)[C@H](CCC(N)=O)NC(=O)CNC(=O)[C@H](CCC(=O)O)NC(=O)[C@H](CC(C)C)NC(=O)[C@H](Cc1ccc(O)cc1)NC(=O)[C@H](CO)NC(=O)[C@H](CO)NC(=O)[C@@H](NC(=O)[C@H](CC(=O)O)NC(=O)[C@H](CO)NC(=O)[C@@H](NC(=O)[C@H](Cc1ccccc1)NC(=O)[C@@H](NC(=O)CNC(=O)[C@H](CCC(=O)O)NC(=O)[C@H](C)NC(=O)[C@@H](N)Cc1c[nH]cn1)[C@@H](C)O)[C@@H](C)O)C(C)C)C(=O)N[C@@H](C)C(=O)N[C@@H](Cc1c[nH]c2ccccc12)C(=O)N[C@@H](CC(C)C)C(=O)N[C@H](C(=O)N[C@@H](CCCCN)C(=O)NCC(=O)N[C@@H](CCCNC(=N)N)C(=O)O)C(C)C [(L)-GLP1]
luciferase expression (in words) [4]: inactive

Glucagon
t½ [3]: 0.25 h

Thymosin (Ac-SDAAVDTSSEITTKDLKEKKEVVEEAEN; UniProt P06454 2-29, looked up) [FDA approved peptide drug, hepatitis, cancer]
t½ [3]: 2 h

(L)-PTH: native parathyroid hormone, residues 1-34
degradation by ProtK (in words) [1]: rapid degradation | time until all peptide is degraded [1]: under 1 hr

Sermorelin
t½ [3]: 0.2 h

CC[C@H](C)[C@H](NC(=O)[C@H](Cc1ccccc1)NC(=O)[C@H](CC(=O)O)NC(=O)[C@H](CCCNC(=N)N)NC(=O)[C@H](C)NC(=O)[C@H](C)NC(=O)[C@H](CC(C)C)NC(=O)[C@H](CC(N)=O)NC(=O)[C@H](CC(=O)O)NC(=O)[C@H](CC(C)C)NC(=O)[C@@H](NC(=O)[C@@H](NC(=O)[C@H](CC(N)=O)NC(=O)[C@H](CCSC)NC(=O)[C@H](CCC(=O)O)NC(=O)[C@H](CC(=O)O)NC(=O)[C@H](CO)NC(=O)[C@H](Cc1ccccc1)NC(=O)[C@H](CO)NC(=O)CNC(=O)[C@H](CC(=O)O)NC(=O)CNC(=O)[C@@H](N)Cc1c[nH]cn1)[C@@H](C)O)[C@@H](C)CC)C(=O)N[C@@H](CC(N)=O)C(=O)N[C@@H](Cc1c[nH]c2ccccc12)C(=O)N[C@@H](CC(C)C)C(=O)N[C@H](C(=O)N[C@@H](CCC(N)=O)C(=O)N[C@H](C(=O)N[C@@H](CCCCN)C(=O)N[C@H](C(=O)N[C@H](C(=O)N[C@@H](CC(=O)O)C(=O)O)[C@@H](C)O)[C@@H](C)CC)[C@@H](C)O)[C@@H](C)CC [Teduglutide]
t½ [3]: 1.33 h

CC[C@@H](C)[C@@H](NC(=O)[C@@H](C)NC(=O)[C@@H](CCC(=O)O)NC(=O)[C@H](NC(=O)[C@@H](CC(C)C)NC(=O)[C@@H](CCC(=O)O)NC(=O)CNC(=O)[C@@H](C)NC(=O)[C@@H](C)NC(=O)[C@@H](CC(C)C)NC(=O)[C@H](NC(=O)[C@@H](Cc1ccccc1)NC(=O)[C@@H](CC(C)C)NC(=O)[C@@H](CCC(=O)O)NC(=O)[C@@H](CC(C)C)NC(=O)[C@@H](Cc1ccccc1)NC(=O)[C@@H](C)NC(=O)[C@@H](CCCCN)NC(=O)CNC(=O)[C@H](N)CCCNC(=N)N)[C@H](C)CC)[C@H](C)CC)C(=O)N[C@H](CC(=O)O)C(=O)N[C@H](CCCNC(=N)N)C(=O)N[C@@H](C(=O)N[C@H](Cc1ccccc1)C(=O)N[C@@H](C(=O)NCC(=O)N[C@H](CCC(=O)O)C(=O)N[C@H](C)C(=O)N[C@H](Cc1c[nH]cn1)C(=O)O)[C@H](C)O)[C@H](C)O [(D)-GLP1] (H-[dR]G[dK][dA][dF][dL][dE][dL][dF][dI][dL][dA][dA]G[dE][dL][dI][dE][dA][dI][dD][dR][dT][dF][dT]G[dE][dA][dH]-OH; N-terminus and C-terminus assumed)
degradation by ProtK (in words) [1]: persists after 5 hours

(L)-GLP-2: native GLP-2, gastrointestinal peptide
time until all peptide is degraded ([1]; exposure to ProtK, 37° C.): about 1 hr | degradation by ProtK (in words) ([1]; treatment with ProtK over 5 hours): rapid degradation

B1: (D)-GLP1 peptide (designed binder)
peptide: [dR]G[dK][dA][dF][dL][dE][dL][dF][dI][dL][dA][dA]G[dE][dL][dI][dE][dA][dI][dD][dR][dT][dF][dT]G[dE][dA][dH]
EC50, CRE-luciferase expression [5]: 2200 nM | potency relative to the native peptide [5]: ~40 fold lower
